Assay [1] addresses T1, cell surface human Tim-3 on Tim-3 DO11.10 cells (human, UniProt Q8TDQ0 22-301).
T1 construct: whole, on cells; Also used as the target for the mixed lymphocyte reaction rows, where Tim-3 is on primary human cells; also called Tim-3 D011.10 cells
T1 sequence (looked up): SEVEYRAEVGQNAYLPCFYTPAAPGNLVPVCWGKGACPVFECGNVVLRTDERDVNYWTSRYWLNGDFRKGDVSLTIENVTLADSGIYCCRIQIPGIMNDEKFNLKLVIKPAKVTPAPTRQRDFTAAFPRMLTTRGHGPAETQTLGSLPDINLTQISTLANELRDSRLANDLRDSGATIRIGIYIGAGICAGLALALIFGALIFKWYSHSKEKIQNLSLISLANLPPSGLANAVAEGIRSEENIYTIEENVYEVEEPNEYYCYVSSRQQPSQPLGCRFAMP
Nature of the assay: flow cytometry, A488-labelled antibody on Tim-3 DO11.10 cells. In general terms: A flow cytometer gives signals particle by particle.

Assay [2] concerns the target T2, human Tim-3-IgV-Fc single arm antigen (SAG) (human).
T2 construct: Construct is only named; its build is not described; also called Tim-3 SAG; not shown: Fc part; second Fc arm of the single arm antigen; not described
T2 sequence (Q8TDQ0 whole entry, looked up): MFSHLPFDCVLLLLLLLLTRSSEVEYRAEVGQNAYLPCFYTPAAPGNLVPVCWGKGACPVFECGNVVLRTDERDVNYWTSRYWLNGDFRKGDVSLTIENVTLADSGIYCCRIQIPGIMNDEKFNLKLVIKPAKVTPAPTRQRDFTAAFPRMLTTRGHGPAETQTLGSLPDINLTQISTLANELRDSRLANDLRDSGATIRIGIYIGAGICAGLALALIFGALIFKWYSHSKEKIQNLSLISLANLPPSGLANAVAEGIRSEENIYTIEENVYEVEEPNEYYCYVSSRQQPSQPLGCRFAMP
In words: SPR Biacore T100, antibody captured on Human Fab Binder, Tim-3 SAG as analyte, 1:1 Langmuir with mass transport. On the technique in general: In SPR one partner is held on a chip, and binding of the other changes the refractive index at the surface.

In assay [3] the target is T3, human Tim-3-Fc (R&D Systems) (human, UniProt Q8TDQ0 22-130, biotinylated in the phosphatidylserine assay; ruthenylated (sulfo-tag NHS-ester) in the galectin-9 assay).
T3 construct: Bought protein; Supplier is not repeated for the CEACAM1 assay; also called hTIM-3-Fc; hTIM-3-Fc Biotin; not shown: Fc part of the bought fusion protein
T3 sequence: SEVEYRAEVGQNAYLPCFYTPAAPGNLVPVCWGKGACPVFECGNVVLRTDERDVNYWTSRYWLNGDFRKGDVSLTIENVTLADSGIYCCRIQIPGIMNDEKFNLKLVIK
In words: MSD plate competition assay, ruthenylated hTim-3-Fc binding to coated galectin-9-biotin; competitor galectin-9.

The target in assay [4] is T3, human Tim-3-Fc (R&D Systems). In words: ELISA, human Tim-3-Fc coated, anti-human IgG F(ab')2-HRP detection. In general terms: ELISA stands for enzyme-linked immunosorbent assay.
Assay [5] shares this target. Nature of the assay: flow cytometry, blocking of biotinylated hTIM-3-Fc binding to phosphatidylserine on camptothecin-treated DO11.10 cells.
Another assay concerns the target T4, hTim-3-IgV-FLAG (human, UniProt Q8TDQ0 22-130, density indicating glycosylation at Asn99).
T4 construct: Purified from 293HEK supernatant; also called hTim-3-FLAG; human Tim-3 IgV domain; not shown: FLAG tag
T4 sequence: T3 sequence
In words: SPR Biacore T200, Fab captured, hTim-3-IgV-FLAG as analyte, HBS-EP, 25 C, 1:1 binding.

The target of another assay is human PD-1 on CHO cells (human, UniProt Q15116 25-288). In words: flow cytometry, CHO cells with human PD-1 incubated with antibody 100 nM, then PD-L2-FITC; competitor PD-L2-FITC.
Sequence of human PD-1 on CHO cells (Q15116 25-288 limits assumed): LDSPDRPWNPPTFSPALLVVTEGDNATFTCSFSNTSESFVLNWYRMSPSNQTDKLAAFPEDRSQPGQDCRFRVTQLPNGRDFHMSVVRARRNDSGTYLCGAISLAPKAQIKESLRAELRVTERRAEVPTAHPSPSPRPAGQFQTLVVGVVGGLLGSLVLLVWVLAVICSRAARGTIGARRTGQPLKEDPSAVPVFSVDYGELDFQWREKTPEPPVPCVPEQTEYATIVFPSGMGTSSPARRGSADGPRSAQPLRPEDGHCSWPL

B1: Antibody A (anti-Tim-3 Antibody) (antibody, human IgG1, kappa, V domains shown)
VH: EVQLLESGGGLVQPGGSLRLSCAASGFTFSSYYMSWVRQAPGKGLEWVSAISGSGGSTYYADSVKGRFTISRDNSKNTLYLQMNSLRAEDTAVYYCARYARTAFDLWGQGTLVTVSS
VL: DIVMTQSPSSLSASVGDGVTITCQASQDIYNYLNWYQQKPGKAPKLLIYAASSLQSGVPSRFSGSGSGTDFTLTISSLQPEDFATYYCQQANSFPPTFGQGTKLEIKR
notes: Full IgG; also called anti-human Tim-3
In general, EC50 refers to the concentration at which the effect is half-maximal. Higher therefore signals a less potent agent. As a reminder, the Kd is the free concentration of one partner at which half of the binding sites on the other are occupied at equilibrium, for simple one-to-one binding. Read a high Kd as lower affinity. In general, koff refers to the first-order rate constant of dissociation. As usually defined, the kon is the rate constant with which the complex forms. Higher therefore signals faster complex formation. In general, IC50 refers to the concentration that gives 50% inhibition. Read a high IC50 as a need for much substance. Turning to B1, the EC50 was determined as 0.09 nM in assay [1] and 0.0207 nM in assay [4]. The molecule also yielded a Kd in assay [2] of 0.398 nM. In assay [2], this molecule showed an off-rate (koff) of 0.000927 s⁻¹. This molecule registered an association rate constant (kon) in assay [2] of 2.33e+06 M⁻¹ s⁻¹. Besides, the IC50 in assay [3] is 5.6 nM; in assay [5] it was 0.32 nM.

B2: Antibody A-Fab (Fab, V domains shown)
VH: B1 VH
VL: B1 VL
notes: Made by clipping Antibody A with immobilized papain; the Fc part was not present in the assay; also called Fab for Antibody A
In the assay with hTim-3-IgV-FLAG, B2 gave a dissociation constant (Kd) of 7.92 nM, a koff of 0.00286 s⁻¹ and a kon of 362000 M⁻¹ s⁻¹.

B3: Antibody D in IgG1 format (antibody, V domains shown)
VH: QVQLVQSGAEVKKPGSSVKVSCKASGGTFSSYAISWVRQAPGQGLEWMGLIIPMFDTAGYAQKFQGRVAITVDESTSTAYMELSSLRSEDTAVYYCARAEHSSTGTFDYWGQGTLVTVSS
VL: DIQMTQSPSSVSASVGDRVTITCRASQGISSWLAWYQQKPGKAPKLLISAASSLQSGVPSRFSGSGSGTDFTLTISSLQPEDFATYYCQQANHLPFTFGGGTKVEIK
notes: IgG1 format, expressed in yeast; also called Antibody D, in IgG1 format and expressed in yeast
Consider B3, for which the “MFI (PD-L2-FITC) in presence of the antibody” value with human PD-1 on CHO cells is 24700.

Values taken from patent publication US20190276534A1 (Eli Lilly, published 2019).
